Biological target: 新型冠状病毒SARS-CoV-2和SARS-CoV以及动物来源的SARS-like冠状病毒S1
Test: ELISA, S1 proteins coated at 2 μg/mL, antibody titrated from 10 μg/mL

B1: 全人源广谱抗sarbecovirus和/或新冠突变株的抗体(VSCM8-83) (antibody, V domains shown)
VH: EVQLVEFGGGLVQPGGSLRLSCAASGFAVSSNYMSWVRQAPGKGLEWVSVIYGDGTTYYGDSVKGRFTISRHNSKNTLYLQMNSLRTEDTAVYYCARIVSEAFDLWGQGTMVTVSS
VL: DIQMTQSPSTLSASVGDRVTITCRASQSIGRWLAWYQQKPGKAPKLLIYMASILESGVPSRFSGSGSATEFTLTISSLQPDDFATYYCQQYNGYSQYTFGQGTKLEIKR
EC50: 0.0397 to 0.0749 µg/mL

From CN118638216A
